This data set is described as follows: soluble on expression in E. coli; label from the status in PepcDB or PDB records.
On to “MAHHHHHHMNVALIFGITGQDGSYLSELLLEKGYTVHGVIRRCSSFNTKRIDHIFDQLNLHYGDVLDSSSICKLISKIKPHEIYNLAAQSHVKVSFELPVYTAETTAVGTLRILEAIKISNLPDVKFYNASTSELFGSSTDDRQHESTPFNPVSPYAIAKLYSHYITICYRKSYQMFCVNGILFNHESPRRGETFVTRKITRGVANICKNRQNCLVLGDLSTYRDWGHAKDYVRAMYLMLQQDEPDDFVISSNEKHTVKEFCEISFSFVGIFLKWKGTGIQEVGVDQHDRVLIKKDPRYYRECDVFHLHGDSSKARQKLQWAPTYSFFQLIYEMLTYDFEQCSLPIDDFDTCVSRYENYRGVPTK”, for which the “soluble on expression in E. coli” value was “not soluble”. With “MQVSVRDNNVDQALRALKKKLQREGVFREMKLKQHFEKPSEKKAREKAEAIRRARKLARKKAQREGMLLEHHHHHH” the entry was “not soluble”; with “MSTAYEVQCRGLPWEATEQELRDFFGNNGIESLEIPRRNGRTSGDAKVVFTNEEDYNNALKKDREHLGSRYIEVFPAGGAPTRRGDRGERGDRGDRDHYRSRGAPPRDRYSDRGGPRSSGPDSIVRLRGLPFSVTSRDISDFLAPLPIVRDGILLPDQQRARPGGEAYVCFETMESVQIAKQRHMKNIGHRYIEVFEATHRDLSRFAEENDLRVPRFGPPPFASAPQTAPRGAYDPYSQPTDPYRNATDYRRAAEPEDPYARSRAPSVQDYGVRASYDPYTQPAAPVSSYPSQQQPSAGYYDNYAPKTAYESYGRERGPDPRDVRDPRDSRMPDPRDSRALSDPYAAESRYSEYGYESREPYWRGGSGGPPSIGGGVGGGGAPLAPTGRDPYSVGESWANGAGGPGGPPPVSSDRDRYGSGGYASEPYAQREAGGAMRRSEYGRPDDRYSKPEPYGYSRDRDYGAPQNQHFVLRMRGVPFRASEADVYDFFHPIRPNQVELLRDHQFQRPSGDARVIFYNRKDYDDALMKDKQYMGERYIEMIPDNGRY”, “not soluble”; with “MSYLDTATDLPNQTLFLEYLNIALSNARRHHAQVGVLLCQINNWSDLKRKRGDAVANAFLQEAGQKLKSNLRNGDIVSRWDKDEFIFLVSKVQDTSSLLGIAQRLMKPVLAPVTAGGRPFQPEITYGVALYPVDGEQVNDLIGHIRENLQQLLPQPTLEHHHHHH”, “not soluble”. With “MGSDKIHHHHHHMTASLLTFAKGGVHPPESKEITEHLAIEKMPLPAQVEIPLLQHFGAPCQPLVNKKDRVEEGDLIGQVQGLGANVHASITGTVTNVGTSIGPTSLNIPSVTIDRDTEAPDKIYTPSDWRGLSPQELLQKIKDGGIVGIGGAGFPAHVKLSPPPDAKVDTLVLNGAECEPYLTCDHRVMLEKPEEVVEGAKILLHVLGIKDCYIGVESNKNDAIDALRKTIEQQKLDGVKIQVSPLKVKYPQGSEKQLIESTTGRKVPGGGLPFDVGVIVQNVGTAKAVFDAVVLNKPLYEKVITISGRGISRPANLQVRIGTRIRDIVEYLGGTKADLAKIVMGGPMMGFAVSSLDIPVTKTCSGILFLTRDEIDEQPYGPCIRCGWCVEACPMGLSPNEIGLYVEAGRAADTAPFGVFDCFECGSCAFVCPAKRPLVQFIRLAKQKARK” the entry was “not soluble”; with “MISLPIDAVVPALRQALGAQHQAVLEAPPGAGKTTRVPLALLDEPWLAGQRILMLEPRRLAARAAAERLAAELGEKVGETVGYRIRLESRVGPKTRIEVVTEGILARRLQDDPALDGVGLVIFDEFHERSLDADLALALTLNGRELLRDEPPLKVLVMSATLEGERLAALLGEAPVVRSEGRMFPVDIRWGRPAQPGEFIEPRVQQAVLQALAEESGSVLVFLPGQAEIRRVHEGLREALGGRPEVLLCPLHGELDLAAQRAAIEPASRGTRKVVLATNIAETSLTIDGVRVVIDAGLARVPRFDPGSGMTRLETQRISRASATQRAGRAGRLEPGVCYRLWSESQHEQLPAYGTAEILQADLAGLALQLARWGVAPEELAWLDAPPAAAYAQARELLGRLGALNASGALSAHGQAMAELPTHPRIAHLLLRGQALGLGELACDVAALLGERDIQRGGGADLHSRLALLAGEARTGASRGAVQRARQLARQFRGYLRGAASEAVVDPGHPRWLGCLLAFAYPDRIARQRRAGGGDYRLANGRAAQFGEPDSLMKQPWLVIADLGSRQGQREERIYLAAELDPRLFDTVLAEQVSQRDELQWDEREGVLRAERQRRVGELVLSSEALPGLDEAARSQALLGLVRRKGLELLPWTPELRQWQARIGLLRRLDLEDKGESEWPDVSDAALLERLEEWLPAYLGKVTRLAHFANLDLASILAGLLPWPLPQRLDEWAPKTLEVPSGSRIRLDYSETPPILAVRLQELFGLGDTPRIAQGRLAVKLHLLSPAHRPVQVTQDLANFWRSTYAEVRKDLKGRYPKHYWPDDPLVAEATARAKPR”, “not soluble”; with “MGSDKIHHHHHHMVDDVFGNAIASATFRTHSDSLVVDSLATVDLTASAWPVFDIAASAINYPFLYADRDGTDLGALAVQQFDDVDQRLRTWMRGFVAGEPTDTLSLLKDISLGIASSISYQSREEEGTQAPLTTLDRGWGSCRDFAVLFAEAVRSLGFGARIVSGYLFNPNRALTGSTDSGSTHAWAEVFVPGAGWITLDPTNRSMGGANLIPVAVTRDIAHAVPVSGSFIGGSNGLPVNERGRRSQSNRPGLSGAAVERWIDVAQFSRCRAAPLVLNRPEPLTR”, “not soluble”. With “MSLTYPYRTTMALNTYQYRETTMIDPKKIEQIARQVHESMPKGIREFGEDVEKKIRQTLQAQLTRLDLVSREEFDVQTQVLLRTREKLALLEQRISELENRSTEIKKQPDPETLPPTLEGGSHHHHHH” the entry was “soluble”; with “MMQISDTYNQKHSLFNAMNRFIGAVNNMDQTVMVPSLLRDVPLDMEVKDEVHNTIGATNYFSRTDMHGYYILLKSIRNDIEWGVVQGEDRKKDKLSNMEISRLEDGDGEEDLEKQFHYHLSGLHTVLNKLTRKAHILTNRYKEEIGFGSWGH”, “not soluble”. In the case of “MTTTQDWIMIGGYGPESYNQQSSYQRALLEAAKDKMTEAISANLDLDLISNRFIVADFGCASGPNTFVAVQNIIDAVEEKYLRETGQNPEDNIEFQVLFNDLRINDFNTLFQTLPPGRRYFSAGVPGSFFNRVLPKQSFHIAVMSYAFLFTSKIPKGIMDRDSPLWNKDMQCTGFNPAVKKAYLEQYSIDTKNLLDARAEELMPGGLMLLLGSCMRDGVKMSETLKGTVMDFIGESLNDLAQKGVTEQEKVDTFKTSIYFAEQGEIRQIIEENGKFTIEAFEDIIHSKNEFPLDPKTLAISFKALYGAFISAHFGIEVMRKAFELVEVKAREQISRLHKVKPGMQYLIVLRKN”, the “soluble on expression in E. coli” value is “soluble”. With “MGSDKIHHHHHHMQKSRPEQDVHEDIKILIQTHFGESGQGIHIEVKGDKVSLWGTVDSLAEKDFIGQRIGRIDGVKELDNSLTVANDGKITDKDIEKQVVERFAQSNFEEIMHLGCRASKGIVTLLGHLETQSSERLAKRIASQVRGVKEVRSEIDFLEKAVDDATLVNRVENALVASPWVNAHEIKTSARNGLITLTGMVNTQEEMEWAVDTAYQVPGVKAVVSEIFSRHRSQGEDLYMTEQLVRKLGQHGMTSQLVRAFVQDGIAYMTGEVYSDEDRRWAESMGQHVEGIKSINSSIKVAAHSSK” the entry was “not soluble”; with “MKSQFNQKLEDKFQRNAEQVVSLVKERMQLYENALWSSVAYIDADETDITHTKWLAYSKSLKIDLTYPGINGIGIIYNIQADQLDDYIEKQRVLRPNYAIHPSHNESEYWPITYVEPAAPNKKAIGLDMAFETNRYSSIKKARDTGVAQLTGPITLVQDAKKTPGFLFYTPFYKNGTKPESTEARRDAIDGVTYAPFIMKNLMQGTLAEKNRHVSIQIRDAGDLLFDDHDDESVLDADANPLFTKEQDISLYGRTWSFTIQSNLDFRDESAANQLEHHHHHH”, “not soluble”; with “MSSPERDEGTPVPDSRGHCDADTVSGTPDRRPLLGEEKAVTGEGRAGIVGSPAPRDVEGLVPQIRVAAARQGESPPSVRGPAAAVFVTPKYVEKAQETRGAESQARDVKTEPGTVAAAAEKSEVATPGSEEVMEVEQKPAGEEMEMLEASGGVREAPEEAGPWHLGIDLRRNPLEAIQLELDTVNAQADRAFQHLEQKFGRMRRHYLERRNYIIQNIPGFWMTAFRNHPQLSAMIRGRDAEMLRYVTSLEVKELRHPKTGCKFKFFFRRNPYFRNKLIVKEYEVRSSGRVVSLSTPIIWRRGHEPQSFIRRNQDLICSFFTWFSDHSLPESDRIAEIIKEDLWPNPLQYYLCREGIRRPRRRPIREPVEIPRPFGFQSG”, “not soluble”.

Consider “MAHHHHHHMCCTFWGLRLDNTCNNMKSVDIIKCDMCFFSHDGLFLIYTIINKIFVIQVKNLEMYRIYVESYKVDDIKLSSDNIHFLTLIKNKGCVCIYSFYKNNLINKICDYFQTYDHSFFLSKHNNIGIVKYEKKCLTIYNMNNPEKCLINIENIKYQNKGYCSNYINTIFACLVENKKDVNILLLSLFNYTIIKIIKCINFFPNDILFSKSDHIIAYSNKNRSLHIYSIDGDLLHVYKYAEDLGGNTKNVKKKKKKKKKSKFCAWKILKKSSFSFWITHCK”, for which the “soluble on expression in E. coli” value is “not soluble”.

As for “MGSDKIHHHHHHMKNRKTPMKEQSPESRRRNFEEVALGYTLEEALEEAQRCLQCPTHPCVSGCPVEIDIPGFIRKLRDGKLEESYRILKSYNNLPAVCGRVCPQEVQCESRCVVGKMKDSEPVAIGRLERFVADWAAENLEEDVKPLAGSKKEKVAVVGSGPAGLTAAADLAKMGYHVDIFEAFHKPGGVLVYGIPEFRLPKRIVEREVSYIRKLGVNFHLNTVVGKTVKVKELLSEYDAVFIGTGAGTPKFMGIPGTNLNGVYSANEFLTRVNLMKAYLFPEYDTPIRVGKKVAVIGAGNTAMDAARSALRLGAEKVYIVYRRTEREMPARREEYHHALEEGIEFLWLTLPIRYIGDANGNVEAMECVRMELKEADGSGRPRPVPIEGSNFVLEVDMVIEAIGQGPNRVLLSEFPGLELNERGYIKADEDTGATSVKGVFAGGDIVTGAATVIKAMGAGKKAAQFIHSYLTGEWNPWQK”, the “soluble on expression in E. coli” value is “not soluble”. With “MGSKYSKATNSINDALSSSYLVPFESYRVPLVDLEEATNNFDHKFLIGHGVFGKVYKGVLRDGAKVALKRRTPESSQGIEEFETEIETLSFCRHPHLVSLIGFCDERNEMILIYKYMENGNLKRHLYGSDLPTMSMSWEQRLEICIGAARGLHYLHTRAIIHRDVKSINILLDENFVPKITDFGISKKGTELGQTHLSTVVKGTLGYIDPEYFIKGRLTEKSDVYSFGVVLFEVLCARSAIVQSLPREMVNLAEWAVESHNNGQLEQIVDPNLADKIRPESLRKFGDTAVKCLALSSEDRPSMGDVLWKLEYALRLQESVIHHHHHH” the entry was “soluble”; with “MSEGLSFVIQRHQARRLHYDFRLEIDGVLVSWAVPKGPSRDPSVKRLAVHVEDHPLEYGGFSGDIPKGQYGAGHVDIWDSGVWIPRGDPRQGLRRGKLHFALRGRRLAGDWVLVRMSGEQDQWLLRKEDDEALEHHHHHH”, “not soluble”; with “MGSDKIHHHHHHMTERNSQDIGIQARFAEAEALGAHVYVLAAPLHNGSLPGALSVRRDHVACMLDGGADVQAVSPHLIYIPPSHFESARGWLERHGPASPCATILASPLPLAALAEHLKSFLRVCLPDGEPIVLAYWDPAILATLVGSAEDETLFVKGPVLSGEQRQAFLAPILRWTYWDRKGALRQIDWRQDRMPASAATLKPPLKLDQGQVDALTEASVPDGLLQHFSEHAPELLADVPERDRYGFVCRQIARARQHGIEGPGAWMDYCALAMRHGEAFDSHPDGVALLRTILPTASDRFSAS”, “not soluble”. With “MISLNNRLTTVSRFLKQGTIADIGSDHAYLPIYAIQNHLCECGIAGEVIQGPFQAAVKNVAANHLVERIDVRLGDGLSVIHPEDVIDNITICGMGGPLIAKILKDGQDKLSQHPRLILQSNIQTENLRQTLQQLNYEIIDEIIMEEKGHIYEIVVA” the entry was “not soluble”.

These data come from the DeepSol protein solubility set.
